Assay results as given in PMC4742998.

Molecular target: complement component 9 (C9) (human)
Experiment: cryo-EM structure; monomeric C9 polymerised in solution by overnight incubation at 1 mg/ml and 37 °C; single-particle cryo-EM of soluble poly-C9, 22-fold symmetry applied during refinement, about 5,000 particles, 8 Å

stoichiometry N: 22
Substance: complement component 9 (C9) (natural protein)
